Assay results from the supplement of paper PMC10567573.

B1: FEM1A (parent)
chain: NIVEYLIQEQPGQEQVAGGEAQPG
B2: COX4I1 (parent)
chain: VAHVKHLSASQKALKEKEKASWSS

Variants of: B1
Experiment: protein stability index of a GFP-peptide fusion (GPS, HEK-293T) (PSI 1-6); higher = more stable
Details: c terminus: a fixed tail appended
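Note: lentivirally expressed fusions sorted by FACS into six bins by GFP to DsRed ratio, PSI derived from sequencing read proportions per bin multiplied by bin number.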

Protein stability index: each site, then its substitutions
I2: F 4.24; A 5.21; D 5.12; K 5.27; M 4.15; G 5.39; C 5.17; H 5.49; E 5.63; N 5.41; L 4.29; P 5.54
N1: T 2.92; L 1.85; R 3.19; A 2.91; C 2.79; M 2.16; D 3.66; I 3.26; E 3.85; G 4.34; Q 3.89; K 3.36; W 2.71; P 5.17; S 3.7; V 2.76; F 2.54; Y 2.52; H 3.76

Variants of: B2
Experiment: as above
Details: c terminus: a fixed tail appended

Protein stability index of substitutions, site by site:
A9: Q 3.01; D 3.87; F 3.55; E 4.11; H 3.19; Y 2.06; S 3.59; T 2.93; G 2.38; R 3.7; W 2.47; M 3.03; L 3.23; N 3.43; V 3.09; I 3.35; K 3.07; P 3.19
K19: F 2.64; G 3.52; D 3.85; N 3.4; I 3.21; Y 2.28; A 3.86; C 2.79; R 3.71; M 2.7; E 4.5; S 3.52; W 3.46; Q 3.02; V 3.03; H 2.89; P 3.63; T 3.17; L 2.48
K15: G 3.18; N 3.77; D 3.96; P 2.99; R 3.33; S 4.04; T 3.48; M 3.94; C 3.21; I 3.82; Q 3.5; E 4.08; V 3.2; L 3.29; Y 3; F 3.21; H 3.85; A 3.78; W 2.77
E18: C 3.38; Q 4.05; F 2.51; G 3.13; L 2.69; H 3.64; T 2.87; S 3.02; V 2.59; D 3.15; I 3.15; Y 2.67; K 2.92; W 2.69; P 2.52; R 2.77; N 2.98; M 2.13; A 2.92
S24: Y 3.13; P 4.36; R 3.38; K 4.25; G 3.62; M 3.17; I 3.56; W 2.95; Q 3.94; N 3.76; V 3.15; E 2.81; H 3.45; T 3.57; A 3.41; L 3.41; C 3.31; D 2.98; F 3.33
K12: F 2.92; P 3.58; D 3.88; G 2.65; R 3.07; W 2.69; I 2.71; M 2.77; C 2.33; L 3.32; H 2.84; Y 2.98; N 3.13; Q 3.86; A 2.61; S 3.64; V 3.77; T 3.32; E 3.52
A13: Q 2.63; H 3.17; K 3.16; G 3.3; S 3.2; V 3.09; D 3.82; W 2.08; Y 3.06; N 3.58; R 2.69; F 2.39; L 2.91; C 3.37; M 2.95; T 3.27; E 3.64; I 2.75; P 3.8
K17: P 3.32; V 2.95; M 3.01; A 3.62; N 3.81; F 3.31; C 2.83; T 3.21; H 3.26; R 3.49; E 3.9; L 2.71; G 3.86; W 2.35; I 2.83; D 3.92; Q 3.53; Y 3.06; S 3.23
E16: G 2.38; L 2.36; I 2.54; H 3.56; C 2; S 2.64; P 2.75; A 3.67; K 3.17; F 2.21; N 3.05; V 2.03; W 2.31; Q 2.72; R 2.8; Y 2.56; M 2.46; T 2.93; D 3.48
S21: N 3.75; K 3.47; I 3.68; R 3.49; L 3.16; G 3.6; P 3.73; E 4.42; C 3.74; F 3.72; Y 3.32; V 3.96; H 3.46; W 3.24; A 3.98; Q 4.07; M 3.39; T 3.32; D 4.18
Q11: M 3.25; Y 2.08; H 3.26; I 2.94; F 2.56; E 3.65; N 3.4; G 2.67; R 2.83; S 3.35; W 2.92; D 3.21; C 3.21; P 3.6; T 2.86; L 2.96; A 3.28; K 2.99; V 2.65
A20: K 3.48; H 3.23; D 3.27; E 1.71; Q 2.57; S 3.16; P 3.36; V 3.21; Y 2.29; R 3.65; L 2.86; F 3.13; N 3.05; C 3.28; W 2; I 2.76; M 2.39; T 3.25; G 3.25
L14: P 3.41; V 3.38; H 3.61; F 2.88; N 3.98; G 3.1; Y 3.09; S 3.05; A 3.2; T 2.89; C 3.12; M 3.62; K 3.65; E 3.54; W 3.2; I 3.46; D 3.92; R 3.7; Q 3.48
W22: G 5.03; K 4.78; S 5.08; M 4.88; R 4.58; Q 4.79; T 4.96; E 5.33; P 5.12; V 4.98; L 4.74; F 4.6; H 4.48; A 5.14; Y 4.29; I 4.38; D 4.85; N 5.21; C 4.97
S10: A 2.88; G 3.46; V 2.94; E 3.95; D 4.01; R 3.16; C 1.97; I 2.37; L 2.58; K 2.66; P 3.39; W 2.26; T 2.56; H 3.05; Q 3.12; F 2.83; N 3.98; M 2.94; Y 2.28
S23: A 1.82; R 3.22; W 2.81; L 3.1; M 3.77; V 2.61; F 3.65; H 3.68; P 4.06; I 2.91; T 2.91; N 4; K 3.74; D 4.4; C 2.22; E 3.26; Q 2.81; Y 3.41; G 4.07
